Experimental data as given in PMC9953421, “Regulation of CRISPR-Associated Genes by Rv1776c (CasR) in Mycobacterium tuberculosis”.

B1: csm6p1 (dsDNA)
DNA 1: CGATAGTTGGCCCAATTGTCTATCTGGGC
DNA 2: GCCCAGATAGACAATTGGGCCAACTATCG
B2: casRp1 (dsDNA)
DNA 1: AATAAGTAAGGCTTGTGTCTCACTATGA
DNA 2: TCATAGTGAGACACAAGCCTTACTTATT

Target: T1, CasR (Rv1776c) (UniProt O33179 1-186)
T1 sequence: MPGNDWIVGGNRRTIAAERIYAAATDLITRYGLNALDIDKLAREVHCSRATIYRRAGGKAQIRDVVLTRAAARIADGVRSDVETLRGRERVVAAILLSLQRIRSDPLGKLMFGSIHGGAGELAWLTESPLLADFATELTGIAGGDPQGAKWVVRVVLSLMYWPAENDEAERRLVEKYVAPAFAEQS
Experiment: EMSA; 0-2 uM protein
Details: protein: recombinant, tags: N-terminal His (pET28a), chain copies: 2

Row | Binder | binding result | binding result (blunt)
1 | B1 | binds | –
2 | B2 | – | binds
